In PMC5356271 (2017):

B1: HIV-1 Vif, wild type [HIV-1] / Flag-CBFβ (core-binding factor β), wild type [not stated] (parent complex)
chain 1: not shown
chain 2: MPRVVPDQRSKFENEEFFRKLSRECEIKYTGFRDRPHEERQARFQNACRDGRSEIAFVATGTNLSLQFFPASWQGEQRQTPSREYVDLEREAGKVYLKAPMILNGVCVIWKGWIDLQRLDGMGCLEFDEERAQQEDALAQQAFEEARRRTREFEDRDRSHREEMEVRVSQ

Variants of: B1
Assay: co-immunoprecipitation (Flag IP) with immunoblot quantification; 293T cells treated with CBFβ-specific siRNA; MG132 (5 μM) for 16-h; read off a plot

In order of rising percent of parent:
1. chain 2 I55A  ~68 % WT CBFβ
2. chain 2 F68A  ~76 % WT CBFβ
